The chains are these.
B1: TcpB (minor pilin, N-terminally truncated, first 28 residues excluded) (natural protein)
chain: GGELMIKSSNAFDVIELSSQIQRYASLSKINNRTNPILKDNKAKEFKDADLKWLKLENCPTAGDVPTTGNNNDLQDQFIACDADYRKGDLSYFGSQFEFSTYVHPSNPEIQRQIKQVVSYFQYRGMERAFIGDAAGYVISEAKKKGFSAQDYRIVLIEPDRVGYFESNAISYEEFIENPSARENFLLKATKDRTLALAVSLAQTGEIAMQRDGSVAFLEDSELCWDTAAGSAKSCLSVRYDTVGNKTELDLKQIDVVSAKGLSFESDGKTKTPVVSTYETFQDGGRAKTINAIECPTGLNNRFAAVVSSFSTAGQNANFSSESAKDSQGTTQKDGSKGPHALLSGISLNWTLTNKVWDVTASIGIESGILPTSGIDSGSLLRNPKSLSFIAFQWCEN

Assay in all cases: ITC
In general terms: ITC needs no label: the signal is the heat of the interaction.

The target in test [1] is B1.
The target of a further test is TcpF (1–20) peptide (Vibrio cholerae, UniProt P0C6Q5 21-40).
The next test concerns the target TcpF (1–10) peptide (Vibrio cholerae, UniProt P0C6Q5 21-30).

The text below walks through data of PMC9565799 (2022).

Broadly, the Kd is the concentration at which binding is half-saturated. A low value points to tighter binding. On to FNDNYSSTSTVYATS [TcpF (1–15) peptide], for which the Kd in test [1] is 3000 nM. This lies in the single-digit micromolar range.

Regarding B1, the Kd stood at 1700 nM in the test with TcpF (1–20) peptide and 506 µM with TcpF (1–10) peptide.
